Measured values as given in patent publication US10562935B2, “Stapled peptides and uses thereof” (London Health Sciences Centre Research Inc., priority 2015, dated 2020).
Bridges are numbered along the chain shown (N, C = ends).

Columns and labels:
[1] = Circular dichroism (CD) spectroscopy of HABD2 peptides in Milli-Q water (Example 1); assay type: physicochemical; conditions: for [θ]222/[θ]208 ratio of ellipticities / fH fraction helicity / Molar ellipticity [θ]192 / Molar ellipticity [θ]208 / Molar ellipticity [θ]222: 0.5 mM in Milli-Q water; for fH fraction helicity: equations 1-3; for α-helical character by CD (in words): Milli-Q water; for Molar ellipticity [θ]192: λ = 192 nm; for Molar ellipticity [θ]208: λ = 208 nm; for Molar ellipticity [θ]222: λ = 222 nm
Description: In addition, a large mean residue ellipticity indicates greater α-helical character. […] This was predicted to be the case, as there is a lack of contributing residues that might form a hydrophobic core, thereby helping to stabilize the secondary structure of the linear peptide. For this reason, bridges were introduced into the peptides. […] The differences in α-helicity induced by the bridges placed at different points within each peptide may be due to the differences in their primary sequences. Specifically, two amino acids (at the i and i+4 position) have to be replaced in order to form the lactam bridge. In compound 133, leucine was replaced at both the i and i+4 position; while in compound 136, glutamine was replaced at the i position and aspartic acid was replaced at i+4. Leucine and glutamine are proposed to be helix-stabilizing residues.
A larger portion of the RHAMM protein was used as the reference for α-helical character of the truncated peptides. 7 kDa RHAMM (SEQ ID NO: 1) is a mini protein that is composed of 62 amino acids, which was derived from the C-terminus of the full-length RHAMM sequence. It contains both HABDs, and is predicted to have almost complete α-helix shape, similar to that of native full-length RHAMM.
A peptide's α-helicity can be quantified using equations 1-3: fH=[([θ]obs222−[θ]c)/([θ]max222−[θ]c)] (Equation 1) [θ]c=2220+53T (Equation 2) [θ]max222=(−44000+250T)(1−k/N) (Equation 3) where fH is the ratio of the average number of helical hydrogen bonds divided by the total number of hydrogen bonds that can be found in a peptide, T is the temperature in degrees Celsius, N is the number of residues in the peptide and k is a constant of ellipticity when 100% of the structure is α-helical (3 for carboxyamidated peptides).
Milli-Q water was chosen as the solvent in which all peptides would be dissolved for CD spectroscopy, as it is a UV invisible solvent, which is a requirement of the analytical technique, and it represents RHAMM's natural environment in the body. Luo and Baldwin [18] stated that when peptides are taken out of their native protein sequence, they usually show little to no helical formation in water alone. For this reason, TFE/H2O solutions are commonly used in studies to observe the α-helix characteristics, and may improve the helical nature of the peptides observed here. However, a helix-stabilizing solvent, such as TFE, would not be as contextually relevant, as there are no solvent stabilizing effects in the body. Thus use of TFE would tend to produce skewed results and not be representative of the peptide's natural behavior.

[2] = test system: RHAMM-overexpressing (LR21) cells; experiment: Cell migration assay (Boyden chamber, Chemicon ECM510); assay type: cell-based; conditions: 10 ng/mL peptide; 20 hours; compared to 30% serum control
Description: Compounds 132, 133, 150-152, 156-161, 265-269, 275, 277, and 278 were evaluated for their ability to inhibit cell migration. Cell migration assays were performed using Chemicon Assay Kits (ECM510 (Migration); Billerica, Mass., USA) according to the manufacturer's protocol. Briefly, sub-confluent cultures of RHAMM-overexpressing (LR21) cells were serum starved overnight. 7.5×10^4 cells were then plated in the upper chamber of a Boyden chamber. either in the presence or absence of 10 ng/mL of peptide. 30% fetal bovine serum in DMEM was used as the chemo-attractant in the lower chamber. The number of cells that had crossed the membrane after 20 hours was assessed using the CYQUANT GR Dye and lysis buffer solution provided in the kit. Fluorescence was measured with a fluorescent plate reader using a 480/520 nm filter set.
Values are the mean and SDM of n=3 replicates. *p<0.05, **p<0.01. All statistics compare to 30% serum control. In FIGS. 41-43, where bars are labeled with two compound numbers (“133/150” and “135/152”) this means that the data were pooled for the indicated compounds, i.e., for the non-acetylated and acetylated versions of the indicated peptides.

[3] = test system: RHAMM-overexpressing (LR21) cells; experiment: Cell invasion assay (Boyden chamber with MATRIGEL, Chemicon ECM555); assay type: cell-based; conditions: 10 ng/mL peptide; 20 hours; compared to 30% serum control
Description: Compounds 132, 133, 135, 150-153, 156, 265-269, and 275-278 were evaluated for their ability to inhibit cellular invasion. Invasion assays were performed using Chemicon Assay Kits ECM555 (Invasion); Billerica, Mass., USA) according to the manufacturer's protocol. Invasion assays are performed in an identical manner as the migration assays described above in Example 5, except that cells are required to invade through a layer of extracellular matrix (MATRIGEL) coating the filter that separates the upper and lower Boyden chambers. Briefly, sub-confluent cultures of RHAMM-overexpressing (LR21) cells were serum starved overnight before plating 7.5×10^4 cells in the upper chamber of a Boyden chamber either in the presence or absence of 10 ng/mL of peptide. 30% fetal bovine serum in DMEM was used as the chemo-attractant in the lower chamber. The number of cells that had crossed the membrane after 20 hours was assessed using the CYQUANT® GR Dye and lysis buffer solution provided in the kit. Fluorescence was measured with a fluorescent plate reader using 480/520 nm filter set.
Values the mean and SDM of n=3 replicates. *p<0.05, **p<0.01, ***p<0.001 All statistics compared to 30% serum control. In FIG. 49, where bars are labeled with two compound numbers (“152/135”) this means that the data were pooled for the indicated compound, i.e., for the non-acetylated and acetylated versions of the indicated peptide.

NF-κB = experiment: Inflammation assay: NF-κB inducible SEAP reporter in RAW-Blue macrophages stimulated with PAM3CSK4; assay type: cell-based, murine; conditions: 10 ng/mL peptide with 200 ng/mL PAM3CSK4; 18 hours; compared to +PAM3
Description: Compounds 132, 133, 135, 150, 152, 157-161, 265-269, 275, 277, and 278 were evaluated for their ability to inhibit inflammation. To determine the effect of the peptides on inflammation, commercially available murine RAW 264.7 macrophages carrying a secreted embryonic alkaline phosphatase (SEAP) reporter that is inducible by NF-κB (RAW-Blue; InvivoGen, San Diego, Calif., USA) were used. Cells were grown to 80% confluence in DMEM containing 4.5 g/L glucose, 10% heat-inactivated fetal bovine serum, 2 mM L-glutamine, 50 μg/mL penicillin/streptomycin, 100 μg/mL Normocin (InvivoGen) at 37° C. in 5% CO2. For peptide screening experiments, cells were scraped in growth medium, counted, and plated to flat-bottom 96-well plates at a density of 5×10^4 cells/well either in the presence or absence (control) of 200 ng/mL TLR1/TLR2 agonist PAM3CSK4 (InvivoGen). Peptides were added in 6 replicate wells at a dose of 10 ng/mL in the presence of PAM3CSK4. After 18 hours of stimulation, SEAP concentrations (indicating NF-κB activity) were measured in the supernatants collected from the RAW-Blue cells using QUANTI-BLUE reagent (InvivoGen). After 20 minutes of incubation at 37° C., SEAP levels were determined using spectrophotometry at a wavelength of 630 nm.
Values are the mean and SDM of n=3 replicates. *p<0.05 and ***p<0.001 compared to +PAM3. In FIGS. 44 and 45, where bars are labeled with two compound numbers (“133/150” and “135/152”) this means that the data were pooled for the indicated compounds, i.e., for the non-acetylated and acetylated versions of the indicated peptides.

Substance	[θ]222/[θ]208 ratio of ellipticities [1]	fH fraction helicity [1]	α-helical character by CD (in words) [1]	Molar ellipticity [θ]192 [1]	Molar ellipticity [θ]208 [1]	Molar ellipticity [θ]222 [1]	inhibition of cell migration (in words) [2]	inhibition of cellular invasion (in words) [3]	inhibition of inflammation (SEAP / NF-κB activity, in words) (NF-κB)
H-(cyclo-4,8)-VSK[ERSQK]VKRKQN-NH2 (H-VSKERSQKVKRKQN-NH2; lactam 4-8; SMILES CC(C)[C@H](N)C(=O)N[C@@H](CO)C(=O)N[C@@H](CCCCN)C(=O)N[C@H]1CCC(=O)NCCCC[C@@H](C(=O)N[C@H](C(=O)N[C@@H](CCCCN)C(=O)N[C@@H](CCCNC(=N)N)C(=O)N[C@@H](CCCCN)C(=O)N[C@@H](CCC(N)=O)C(=O)N[C@@H](CC(N)=O)C(N)=O)C(C)C)NC(=O)[C@H](CCC(N)=O)NC(=O)[C@H](CO)NC(=O)[C@H](CCCNC(=N)N)NC1=O) [Compound 133]	0.45	0.17	did not seem to stabilize	1733.35 deg cm^2 dmol^−1 residue^−1	−5010.81 deg cm^2 dmol^−1 residue^−1	−2260.92 deg cm^2 dmol^−1 residue^−1	significantly inhibit cell migration	significantly inhibited cellular invasion	–
H-(cyclo-6,10)-VSKLR[EQLVK]RKQN-NH2 (H-VSKLREQLVKRKQN-NH2; lactam 6-10; SMILES CC(C)C[C@H](NC(=O)[C@H](CCCCN)NC(=O)[C@H](CO)NC(=O)[C@@H](N)C(C)C)C(=O)N[C@@H](CCCNC(=N)N)C(=O)N[C@H]1CCC(=O)NCCCC[C@@H](C(=O)N[C@@H](CCCNC(=N)N)C(=O)N[C@@H](CCCCN)C(=O)N[C@@H](CCC(N)=O)C(=O)N[C@@H](CC(N)=O)C(N)=O)NC(=O)[C@H](C(C)C)NC(=O)[C@H](CC(C)C)NC(=O)[C@H](CCC(N)=O)NC1=O) [Compound 135]	0.55	0.22	increase in α-helix structure	1245.85 deg cm^2 dmol^−1 residue^−1	−7906.16 deg cm^2 dmol^−1 residue^−1	−4400.73 deg cm^2 dmol^−1 residue^−1	significantly inhibit cell migration	significantly inhibited cellular invasion	significantly inhibited inflammation
